Experimental data published in the nanobody polyreactivity screen of Harvey et al. (2022).

Assay: yeast display, Sf9 membrane polyspecificity reagent, FACS + sequencing; frameworks hold sequencing errors
Outline: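 Genes from sorted yeast were amplified by colony PCR, read by MiSeq 2 × 250 sequencing and filtered on CDR length. These cells carried a synthetic nanobody library in Saccharomyces cerevisiae BJ5465 and were sorted by FACS into low and high (top ~1%) gates on anti-HA and streptavidin fluorescence. Polyreactivity is labelled according to the gate of origin.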

| Sequence | polyreactivity (PSR sort gate) |
| --- | --- |
| QVQLVESGGGLVQAGGSLRLSCAASGSIFFYAMGWYIQAPGKERQLVAAISWRGGSTYADSVKGRFTISRDNAKKTVYLQMKSLKPEDTAVYYCAKDWVRSGAVIDYDYWGQGTQVTVSS | high polyreactivity |
| QVQLVESGRGLVQAGGSLRLSCAASGSIFEQNVMGWYRQAPGKERELVAAITRGGSTNYADSVKGRFTISRDNAKNTVYLQMNSLKPEDTAVYYCSKRRWLGPSTLGYWGQGNQVTVSS | low polyreactivity |
| QVQLVESGGGLVQAGGSLRLSCAASGSTFWANAMGWYRQAPGKERELVAAITTSGASTYYADSVKGRFTISRDNAKNTVYLQMNSLKPEDTAVYYCAADYDSYYWYNYWGQGTQVTVSS | low polyreactivity |
| QVQLVESGGGLVQAGGSLRLSCAPSGSTFYRYSMGWYRHAPGKERELVAAINGGDITNYADSVKGRFTISRDNAKNTVYLQMNSLKPEDTAVYYCAARYTYWGLLRYDYWGQGTQVTVSS | high polyreactivity |
| QVQLVESGGGLVQAGGSLRLSCAASGFIFAYYAMGWYRQAPGKERELVAAISQSGTSTYYADSVKGRFTISRDNAKNTVYLQMNSLKPEDTAVYYCNVVPTGVHIFDYWGQGTQVTVSS | low polyreactivity |
| QVQLVESGGGLVQAGGSLRLSCAASGSISFINAMGWYRQAPGKERELVAAITPGASTNYADSVKGRFTISRDNAKNTVYLQLNSLKPEDTAVYFCAAGWVSFEDWVLGSYYEYDYWGLGTQVTVSS | low polyreactivity |
| QVQLVESGGGLVQAGGSLRLSCAASGYTFVYYAMGLYRQAPGKERELVAAITSGGRTNYADSVKGRFTISRDNAKNTVYLQMKSLKPEDTAVYYCNVDGYYLFVRGYEYWGQGTQVTVSS | low polyreactivity |
| QVQLVESGGGLVQAGGSLRLSCAASGSIFYSNTMGWYRQAPGKERELVAAISRGGSTYYADSVKGRFTISRDNAKNTVYLQMNSLKPEDTAVYYCAARYRWAPAYDYWGQGTQVTVSS | high polyreactivity |
| QVQLVESGGGLVQAGGSLRLSCAASGRTFRLYAMGWYRQAPGKERELVAAITRGGRTNYADSVKGRFTISRDNAKNTVYLQMNSLKPEDTAVYYCAARYVEGHPDYYYWGQGTQVTVSS | low polyreactivity |
| QVQLVESGGGLVQAGGSLRLSCAASGSTFSRNTMGWYRQAPGKERELVAAITRSGDSTYYADSVKGRFTISRDNAKKTVYLQMNSLKPEDTAVYYCAARRAYLNYYYWGQGTQVTVSS | high polyreactivity |
| QVQLVESGGGLVQAGGSLRLSCAASGNTFYVYTMGWYRQAPGKERELVAAISSTGDRTYYADSVKGRFTISRDYAKNTVYLQMNSLKPEETAVYYCAARLYRGYRGYYYWGQGTQVTVSS | high polyreactivity |
| QVQLVESGGGLVQAGGSLRLSCAASGSIFGPYAMGWYRQAPGKERELVAVISRSGGSTYYADSVKGRFTISRDNAKNTVYLQMNSLKPEDTAVYYCAAYRGPRADYYWGQGTHVTVSS | high polyreactivity |
| QVQLVESGGGLVQAGGSLRLSCAASGRTFGIYAMGWYRQAPGKEREMVAAISRGGNTYADSVKGRFTISRDNAKNTVYLQMNSLKQEDTAVYYCAAYSSYYVHRFQHYDYWGQGTQVTVSS | high polyreactivity |
| QVQLVESGGGLVQAGGSLRLSCAASGFIFGGYAMGWYRQAPGKERELVAAITWSGGNTYYADSVKGRFTISRDNAKNTVYLQMNSLKPEDTAVYYCAADYWTKYGYWGLGTQVTVSS | low polyreactivity |
| QVQLVESGGGLVQAGGSLRLSCAASGLIFILYAMGWYRQAPGKERELVAAISWTGGSTYYADSVKGRFTISRDNAKNTVYLQMNSLKPEDTAVYYCNKVGVRSGARSIYVVRRYEYWGQGTQVTVSS | high polyreactivity |
| QVQLVESGGGLVQAGGSLRLSCAASGSILLTNTMGWYRQAPGKERELVADINSGASTNYADSVKGRFTISRDNAKNTVYLQMNSLKPEDTAVYYCAADTKGGTYEYDYWGQGTKVTVSS | low polyreactivity |
| QVQLVESGGGLVQAGGSLRLICAASGSIFSTYTMGWYRQAPGKERELVAAITRSGGSTYYADSVKGRFTISRDNAKNTVYLQMNSLKPEDTAVYYCAAKGKRLRSYYQRYYYWGQGTQVTVSS | high polyreactivity |
| QVHLVESGGGLVQAGGSLSLSCDASGYIISSYVMGWYRQAPGKERELVAAISRRGGSTYYADSVKGRFTISRDNAKNTVYLQMNSLIPEDTAVYYCAADGLSGYGSGRYYGMGYCGQGTQVTVSS | high polyreactivity |
| QVQLVESGGGLVQAGGSLRLSCAASGRIFQGYVMGWYRQAQGQERELVAAITTGGSTYYADSVKGRFTISRDNAKNTVYLQMNSLKPEDTAVYYCNAVVYVSGYNPYIFGYWGQGTQVTVSS | low polyreactivity |
| QVQLVESGGGLVQAGGSLRLSCAASGGIFYYYAMGWYRQAPGKERELVATISNGGSTYYADSVKGRFTISRDNAKNTVYLQMNSLKPEDTAVYYCAADSSSDQYRYFPFDHWGQGTQVTVSS | high polyreactivity |
| QDQVVESGGGLVQAGGSLRLSCAASGRIFFAYAMGLYRQAAGTERELVAAITSSGNTYYADSVKGRFTISRDNAKNTVFLQINSLKPEDTAVYYCATGYWELRYDYWGQGTQLTVSS | low polyreactivity |
| QFQLVESGGGLVQAGGSLRLSCAASGSIFVYNVMGWYRQAPGKERELVAAITYSGGGTYYADSVKGRFTISRDTAKNTVYLQMNSLKPEDTAVYYCAAAYPSVAYSYRYDYWGQGTQVTVSS | high polyreactivity |
